Measurements reported in US20040019187A1 (published 2004).

T1: HLA-DR (DRA*0101/DRB1*0401) on the surface of PRIESS cells (human, UniProt P01903 26-254; P01911 30-266)
T1 MHC II alpha: not shown
T1 MHC II beta: not shown


Legend:
[1] = target: T1, HLA-DR (DRA*0101/DRB1*0401) on the …; experiment: cell-based or functional assay
[2] = target: HLA-DR on the surface of LG-2 cells (human B-lymphoblastoid cell line) (human); experiment: cell-based or functional assay

Binder	EC50 of cell killing (nM) for bivalent agent; PRIESS cells; Fab cross-linked with anti-FLAG M2 [1] [nM]	EC50 of cell killing (nM) for bivalent agent; LG2 cells; Fab cross-linked with anti-FLAG M2 [2] [nM]
MS-GPC-8-27-41 Fab (Fab, V domains shown) VH: QVQLKESGPALVKPTQTLTLTCTFSGFSLSTSGVGVGWIRQPPGKALEWLALIDWDDDKYYSTSLKTRLTISKDTSKNQVVLTMTNMDPVDTATYYCARSPRYRGAFDYWGQGTLVTVSS VL: DIVLTQPPSVSGAPGQRVTISCSGSESNIGNNYVQWYQQLPGTAPKLLIYDNNQRPSGVPDRFSGSKSGTSASLAITGLQSEDEADYYCQSYDMNVHVFGGGTKLTVLG	7.7	7.2
MS-GPC-8-17 Fab (Fab, V domains shown) VH: QVQLKESGPALVKPTQTLTLTCTFSGFSLSTSGVGVGWIRQPPGKALEWLALIDWDDDKYYSTSLKTRLTISKDTSKNQVVLTMTNMDPVDTATYYCARSPRYRGAFDYWGQGTLVTVSS VL: DIVLTQPPSVSGAPGQRVTISCSGSSSNIGSNYVSWYQQLPGTAPKLLIYDNNQRPSGVPDRFSGSKSGTSASLAITGLQSEDEADYYCQSYDFSVYVFGGGTKLTVLG	16	
MS-GPC-8-6-2 Fab (Fab, V domains shown) VH: QVQLKESGPALVKPTQTLTLTCTFSGFSLSTSGVGVGWIRQPPGKALEWLALIDWDDDKYYSTSLKTRLTISKDTSKNQVVLTMTNMDPVDTATYYCARSPRYRGAFDYWGQGTLVTVSS VL: DIVLTQPPSVSGAPGQRVTISCSGSESNIGSNYVHWYQQLPGTAPKLLIYDNNQRPSGVPDRFSGSKSGTSASLAITGLQSEDEADYYCQSYDYDHYVFGGGTKLTVLG	8	
